# Experiments:
# IPO4 (human) [1] = target: IPO4 (human) (UniProt Q8TEX9); experiment: co-IP/MS, anti-FLAG IP of C-FLAG B3GNT2 cell lysate
# RCN2 (human) = RCN2 (human) (UniProt Q14257); experiment: as above
# RPS9 (human) = RPS9 (human) (UniProt P46781); experiment: as above
# TUBB (human) [2] = target: TUBB (human) (UniProt P07437); experiment: as above
# FKBP10 (human) = FKBP10 (human) (UniProt Q96AY3); experiment: as above
# RPS15 (human) = RPS15 (human) (UniProt P62841); experiment: as above
# RPL13A (human) [3] = target: RPL13A (human) (UniProt P40429); experiment: as above
# CANX (human) [4] = target: CANX (human) (UniProt P27824); experiment: as above
# RPL24 (human) = RPL24 (human) (UniProt P83731); experiment: as above
# HSD17B12 (human) [5] = target: HSD17B12 (human) (UniProt Q53GQ0); experiment: as above
# RPL14 (human) = RPL14 (human) (UniProt P50914); experiment: as above
# UQCRC2 (human) [6] = target: UQCRC2 (human) (UniProt P22695); experiment: as above
# CALU (human) [7] = target: CALU (human) (UniProt O43852); experiment: as above
# PIP (human) = PIP (human) (UniProt P12273); experiment: co-IP/MS, anti-FLAG IP of N-FLAG B3GNT2 cell lysate
# CAPZA1 (human) = CAPZA1 (human) (UniProt P52907); experiment: as above
# IPO4 (human) [8] = target: IPO4 (human) (UniProt Q8TEX9); experiment: as above
# RPS7 (human) = RPS7 (human) (UniProt P62081); experiment: as above
# SQSTM1 (human) = SQSTM1 (human) (UniProt Q13501); experiment: as above
# TUBB (human) [9] = target: TUBB (human) (UniProt P07437); experiment: as above
# RPL23A (human) = RPL23A (human) (UniProt P62750); experiment: as above
# RPL13A (human) [10] = target: RPL13A (human) (UniProt P40429); experiment: as above
# CANX (human) [11] = target: CANX (human) (UniProt P27824); experiment: as above
# DNAJA1 (human) = DNAJA1 (human) (UniProt P31689); experiment: as above
# CKAP4 (human) = CKAP4 (human) (UniProt Q07065); experiment: as above
# PDIA6 (human) = PDIA6 (human) (UniProt Q15084); experiment: as above
# HSD17B12 (human) [12] = target: HSD17B12 (human) (UniProt Q53GQ0); experiment: as above
# GCN1 (human) = GCN1 (human) (UniProt Q92616); experiment: as above
# CASP14 (human) = CASP14 (human) (UniProt P31944); experiment: as above
# ATP1A1 (human) = ATP1A1 (human) (UniProt P05023); experiment: as above
# UQCRC2 (human) [13] = target: UQCRC2 (human) (UniProt P22695); experiment: as above
# CALU (human) [14] = target: CALU (human) (UniProt O43852); experiment: as above
# CAPZB (human) = CAPZB (human) (UniProt P47756); experiment: as above
# ERLIN1 (human) = ERLIN1 (human) (UniProt O75477); experiment: as above
# SLC25A4 (human) = SLC25A4 (human) (UniProt P12235); experiment: as above
# ERLIN2 (human) = ERLIN2 (human) (UniProt O94905); experiment: as above
# LRP1 (human) = LRP1 (human) (UniProt Q07954); experiment: as above
# RPL12 (human) = RPL12 (human) (UniProt P30050); experiment: as above
# RPS12 (human) = RPS12 (human) (UniProt P25398); experiment: as above
# IPO4 (human), sequence (Q8TEX9 whole entry): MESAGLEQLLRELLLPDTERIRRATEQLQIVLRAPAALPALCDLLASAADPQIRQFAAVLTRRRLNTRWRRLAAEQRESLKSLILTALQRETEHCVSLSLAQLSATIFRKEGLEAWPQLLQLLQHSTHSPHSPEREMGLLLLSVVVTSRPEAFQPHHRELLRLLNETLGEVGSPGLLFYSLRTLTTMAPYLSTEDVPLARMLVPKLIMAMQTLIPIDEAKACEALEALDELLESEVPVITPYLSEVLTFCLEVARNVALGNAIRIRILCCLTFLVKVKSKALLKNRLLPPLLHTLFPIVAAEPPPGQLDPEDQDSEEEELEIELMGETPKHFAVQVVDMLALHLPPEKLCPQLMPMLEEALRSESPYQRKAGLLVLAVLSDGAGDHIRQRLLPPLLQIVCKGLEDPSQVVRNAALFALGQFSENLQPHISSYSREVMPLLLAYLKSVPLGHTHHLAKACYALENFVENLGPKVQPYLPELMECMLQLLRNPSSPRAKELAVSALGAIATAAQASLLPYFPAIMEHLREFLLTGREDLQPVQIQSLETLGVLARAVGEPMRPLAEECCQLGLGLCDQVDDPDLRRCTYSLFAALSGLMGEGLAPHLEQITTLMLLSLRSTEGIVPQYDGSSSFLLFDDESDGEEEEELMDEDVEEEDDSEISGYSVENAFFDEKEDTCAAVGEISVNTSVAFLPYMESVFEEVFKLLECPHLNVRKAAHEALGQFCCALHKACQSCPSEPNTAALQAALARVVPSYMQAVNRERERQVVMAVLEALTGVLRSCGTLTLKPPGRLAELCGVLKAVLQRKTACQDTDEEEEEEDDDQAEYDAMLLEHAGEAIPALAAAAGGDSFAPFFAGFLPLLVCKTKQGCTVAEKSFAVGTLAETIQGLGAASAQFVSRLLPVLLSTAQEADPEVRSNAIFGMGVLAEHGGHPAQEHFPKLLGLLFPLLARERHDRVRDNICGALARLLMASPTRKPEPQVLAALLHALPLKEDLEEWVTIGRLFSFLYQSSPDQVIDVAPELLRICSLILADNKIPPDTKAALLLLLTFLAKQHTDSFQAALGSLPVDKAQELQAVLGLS
# CALU (human), sequence (O43852 20-315 limits assumed): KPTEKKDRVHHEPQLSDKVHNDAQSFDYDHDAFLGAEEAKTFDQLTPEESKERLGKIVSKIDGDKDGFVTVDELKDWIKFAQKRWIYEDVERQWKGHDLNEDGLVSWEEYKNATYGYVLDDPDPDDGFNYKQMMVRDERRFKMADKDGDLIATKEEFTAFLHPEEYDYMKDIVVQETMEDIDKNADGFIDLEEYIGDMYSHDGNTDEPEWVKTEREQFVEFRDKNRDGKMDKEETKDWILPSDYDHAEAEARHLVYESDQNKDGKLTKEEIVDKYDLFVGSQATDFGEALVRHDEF
# CANX (human), sequence (P27824 21-592 limits assumed): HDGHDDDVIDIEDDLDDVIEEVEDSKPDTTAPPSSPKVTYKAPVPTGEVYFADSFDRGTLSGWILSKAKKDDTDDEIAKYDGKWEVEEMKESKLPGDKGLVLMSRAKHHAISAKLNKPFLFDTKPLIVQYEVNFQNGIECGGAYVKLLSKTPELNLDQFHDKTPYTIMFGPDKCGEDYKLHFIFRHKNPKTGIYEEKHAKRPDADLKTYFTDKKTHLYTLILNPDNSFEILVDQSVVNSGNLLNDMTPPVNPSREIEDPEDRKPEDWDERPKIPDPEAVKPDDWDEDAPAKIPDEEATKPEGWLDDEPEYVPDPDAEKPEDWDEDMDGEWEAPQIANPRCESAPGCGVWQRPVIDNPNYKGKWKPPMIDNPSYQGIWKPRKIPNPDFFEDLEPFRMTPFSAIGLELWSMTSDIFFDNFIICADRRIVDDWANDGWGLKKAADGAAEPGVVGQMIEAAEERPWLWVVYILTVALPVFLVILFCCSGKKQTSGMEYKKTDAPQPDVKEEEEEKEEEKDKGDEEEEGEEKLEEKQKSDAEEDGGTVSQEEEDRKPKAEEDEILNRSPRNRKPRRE
# TUBB (human), sequence (P07437 whole entry): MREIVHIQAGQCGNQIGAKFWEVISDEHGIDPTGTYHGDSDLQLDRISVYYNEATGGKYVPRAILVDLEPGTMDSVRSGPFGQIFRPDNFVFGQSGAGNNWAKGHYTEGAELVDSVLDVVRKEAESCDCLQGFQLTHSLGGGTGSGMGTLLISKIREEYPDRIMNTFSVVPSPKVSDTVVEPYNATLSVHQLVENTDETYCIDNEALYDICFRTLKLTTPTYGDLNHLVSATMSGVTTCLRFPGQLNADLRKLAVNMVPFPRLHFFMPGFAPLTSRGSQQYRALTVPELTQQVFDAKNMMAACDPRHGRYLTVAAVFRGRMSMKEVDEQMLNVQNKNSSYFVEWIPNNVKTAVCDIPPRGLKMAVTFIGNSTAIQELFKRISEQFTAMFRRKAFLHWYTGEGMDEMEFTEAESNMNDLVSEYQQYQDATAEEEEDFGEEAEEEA
# UQCRC2 (human), sequence (P22695 15-453 limits assumed): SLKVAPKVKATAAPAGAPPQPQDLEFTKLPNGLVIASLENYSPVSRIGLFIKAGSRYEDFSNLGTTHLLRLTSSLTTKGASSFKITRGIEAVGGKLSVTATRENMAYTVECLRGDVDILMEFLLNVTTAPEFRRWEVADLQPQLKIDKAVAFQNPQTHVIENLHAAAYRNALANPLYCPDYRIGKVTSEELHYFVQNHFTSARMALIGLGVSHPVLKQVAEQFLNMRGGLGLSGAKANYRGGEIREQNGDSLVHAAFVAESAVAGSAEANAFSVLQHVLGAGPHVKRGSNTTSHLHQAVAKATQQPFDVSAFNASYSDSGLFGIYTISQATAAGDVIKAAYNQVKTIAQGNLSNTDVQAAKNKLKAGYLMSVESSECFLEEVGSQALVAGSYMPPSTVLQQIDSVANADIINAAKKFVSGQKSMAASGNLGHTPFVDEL
# HSD17B12 (human), sequence (Q53GQ0 whole entry): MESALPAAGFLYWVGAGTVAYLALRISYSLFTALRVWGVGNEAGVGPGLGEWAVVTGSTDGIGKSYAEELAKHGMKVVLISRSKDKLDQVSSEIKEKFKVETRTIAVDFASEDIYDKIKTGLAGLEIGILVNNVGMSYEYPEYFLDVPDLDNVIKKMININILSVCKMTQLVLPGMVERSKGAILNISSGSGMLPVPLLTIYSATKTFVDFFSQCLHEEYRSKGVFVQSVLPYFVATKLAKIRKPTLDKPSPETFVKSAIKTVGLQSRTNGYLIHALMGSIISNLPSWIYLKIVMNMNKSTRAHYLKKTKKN
# RCN2 (human), sequence (Q14257 other isoform, or with tags, fused parts or gaps limits assumed): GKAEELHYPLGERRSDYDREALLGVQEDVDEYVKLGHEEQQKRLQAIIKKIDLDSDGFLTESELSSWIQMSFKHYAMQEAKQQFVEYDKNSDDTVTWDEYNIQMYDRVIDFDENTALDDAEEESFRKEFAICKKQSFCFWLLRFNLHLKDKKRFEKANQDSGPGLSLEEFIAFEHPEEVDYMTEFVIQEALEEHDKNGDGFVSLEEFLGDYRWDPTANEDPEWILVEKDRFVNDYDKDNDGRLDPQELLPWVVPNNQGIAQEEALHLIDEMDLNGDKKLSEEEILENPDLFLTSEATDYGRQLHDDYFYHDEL
# CKAP4 (human), sequence (Q07065 whole entry): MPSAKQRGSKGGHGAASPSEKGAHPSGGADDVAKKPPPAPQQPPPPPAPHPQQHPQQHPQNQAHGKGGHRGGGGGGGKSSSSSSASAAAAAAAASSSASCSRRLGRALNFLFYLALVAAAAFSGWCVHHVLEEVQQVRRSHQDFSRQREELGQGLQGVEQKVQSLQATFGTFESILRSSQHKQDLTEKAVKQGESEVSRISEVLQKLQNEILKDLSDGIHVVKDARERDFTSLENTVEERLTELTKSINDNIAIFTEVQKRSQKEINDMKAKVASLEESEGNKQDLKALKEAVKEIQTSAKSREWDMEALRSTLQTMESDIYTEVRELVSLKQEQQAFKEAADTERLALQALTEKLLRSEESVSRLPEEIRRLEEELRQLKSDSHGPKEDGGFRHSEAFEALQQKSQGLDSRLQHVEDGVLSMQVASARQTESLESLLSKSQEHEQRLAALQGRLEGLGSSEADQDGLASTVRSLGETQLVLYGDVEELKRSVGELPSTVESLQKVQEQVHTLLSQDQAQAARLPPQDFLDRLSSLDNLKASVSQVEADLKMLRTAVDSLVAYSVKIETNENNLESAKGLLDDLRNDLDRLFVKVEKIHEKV
# PIP (human), sequence (P12273 29-146 limits assumed): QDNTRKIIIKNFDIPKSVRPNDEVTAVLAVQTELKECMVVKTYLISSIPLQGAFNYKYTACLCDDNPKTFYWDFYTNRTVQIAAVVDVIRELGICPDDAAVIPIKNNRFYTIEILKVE
# CASP14 (human), sequence (P31944 whole entry): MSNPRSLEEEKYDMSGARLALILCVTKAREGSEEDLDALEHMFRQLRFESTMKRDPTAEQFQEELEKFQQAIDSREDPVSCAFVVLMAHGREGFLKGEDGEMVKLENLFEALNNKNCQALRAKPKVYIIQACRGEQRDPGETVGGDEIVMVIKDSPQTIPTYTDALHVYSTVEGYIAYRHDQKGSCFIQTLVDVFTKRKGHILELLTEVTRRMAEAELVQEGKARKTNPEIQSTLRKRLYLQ
# PDIA6 (human), sequence (Q15084 20-440 limits assumed): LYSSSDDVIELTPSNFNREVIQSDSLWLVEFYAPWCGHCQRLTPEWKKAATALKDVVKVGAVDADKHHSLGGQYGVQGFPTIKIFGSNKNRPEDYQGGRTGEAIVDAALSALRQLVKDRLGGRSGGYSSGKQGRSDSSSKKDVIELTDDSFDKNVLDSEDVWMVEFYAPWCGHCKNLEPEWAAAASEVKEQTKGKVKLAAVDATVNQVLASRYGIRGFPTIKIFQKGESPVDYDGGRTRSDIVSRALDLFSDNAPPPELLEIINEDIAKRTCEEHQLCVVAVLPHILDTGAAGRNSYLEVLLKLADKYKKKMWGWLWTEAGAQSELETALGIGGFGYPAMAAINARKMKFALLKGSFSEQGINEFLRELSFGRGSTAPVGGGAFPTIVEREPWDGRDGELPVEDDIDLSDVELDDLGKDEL
substance,measurement,setting,value
C-terminal FLAG tagged B3GNT2 (from UniProt Q9NY97 1-397) (enzyme),co-IP mass spectrometry count,IPO4 (human) [1],17
same,co-IP mass spectrometry count,RCN2 (human),16
same,co-IP mass spectrometry count,RPS9 (human),6
same,co-IP mass spectrometry count,TUBB (human) [2],117
same,co-IP mass spectrometry count,FKBP10 (human),16
same,co-IP mass spectrometry count,RPS15 (human),11
same,co-IP mass spectrometry count,RPL13A (human) [3],13
same,co-IP mass spectrometry count,CANX (human) [4],11
same,co-IP mass spectrometry count,RPL24 (human),14
same,co-IP mass spectrometry count,HSD17B12 (human) [5],10
same,co-IP mass spectrometry count,RPL14 (human),21
same,co-IP mass spectrometry count,UQCRC2 (human) [6],4
same,co-IP mass spectrometry count,CALU (human) [7],13
N-terminal FLAG tagged B3GNT2 (from UniProt Q9NY97 1-397) (enzyme),co-IP mass spectrometry count,PIP (human),4
same,co-IP mass spectrometry count,CAPZA1 (human),2
same,co-IP mass spectrometry count,IPO4 (human) [8],3
same,co-IP mass spectrometry count,RPS7 (human),8
same,co-IP mass spectrometry count,SQSTM1 (human),3
same,co-IP mass spectrometry count,TUBB (human) [9],164
same,co-IP mass spectrometry count,RPL23A (human),6
same,co-IP mass spectrometry count,RPL13A (human) [10],4
same,co-IP mass spectrometry count,CANX (human) [11],6
same,co-IP mass spectrometry count,DNAJA1 (human),6
same,co-IP mass spectrometry count,CKAP4 (human),2
same,co-IP mass spectrometry count,PDIA6 (human),5
same,co-IP mass spectrometry count,HSD17B12 (human) [12],10
same,co-IP mass spectrometry count,GCN1 (human),14
same,co-IP mass spectrometry count,CASP14 (human),8
same,co-IP mass spectrometry count,ATP1A1 (human),11
same,co-IP mass spectrometry count,UQCRC2 (human) [13],13
same,co-IP mass spectrometry count,CALU (human) [14],10
same,co-IP mass spectrometry count,CAPZB (human),2
same,co-IP mass spectrometry count,ERLIN1 (human),11
same,co-IP mass spectrometry count,SLC25A4 (human),9
same,co-IP mass spectrometry count,ERLIN2 (human),8
same,co-IP mass spectrometry count,LRP1 (human),2
same,co-IP mass spectrometry count,RPL12 (human),9
same,co-IP mass spectrometry count,RPS12 (human),3
